B1: JUNB (parent)
chain: FVKALDDLHKMNHVTPPNVSLGAT

Variants of: B1
Assay: protein stability index of a GFP-peptide fusion (GPS, HEK-293T) (PSI 1-6); higher = more stable
Details: c terminus: a fixed tail appended
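Further: lentivirally expressed fusions sorted by FACS into six bins by GFP to DsRed ratio, PSI derived from sequencing read proportions per bin multiplied by bin number.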

Point of comparison: FVKALDDLHKRNHVTPPNVSLGAT, protein stability index 2.28. Against it:
- FVKALDDLHKENHVTPPNVSLGAT — higher, 3.21
- FVKALDDLHKANHVTPPNVSLGAT — higher, 2.29
- FVKALDDLHKKNHVTPPNVSLGAT — lower, 1.83
- FVKALDDLHKQNHVTPPNVSLGAT — higher, 2.63
- FVKALDDLHKHNHVTPPNVSLGAT — lower, 1.94
- FVKALDDLHKYNHVTPPNVSLGAT — lower, 1.29
- FVKALDDLHKTNHVTPPNVSLGAT — lower, 2.06
- FVKALDDLHKSNHVTPPNVSLGAT — lower, 2.11
- FVKALDDLHKCNHVTPPNVSLGAT — higher, 2.31
- FVKALDDLHKFNHVTPPNVSLGAT — higher, 2.6
- FVKALDDLHKLNHVTPPNVSLGAT — lower, 1.7
- FVKALDDLHKVNHVTPPNVSLGAT — lower, 1.7
- FVKALDDLHKNNHVTPPNVSLGAT — lower, 2.01
- FVKALDDLHKDNHVTPPNVSLGAT — higher, 2.29
- FVKALDDLHKPNHVTPPNVSLGAT — lower, 1.4
- FVKALDDLHKGNHVTPPNVSLGAT — lower, 1.61
- FVKALDDLHKWNHVTPPNVSLGAT — lower, 2.23
- FVKALDDLHKINHVTPPNVSLGAT — lower, 2.26
- FVKALADLHKMNHVTPPNVSLGAT — lower, 2
- FVKALPDLHKMNHVTPPNVSLGAT — lower, 2.08
- FVKALEDLHKMNHVTPPNVSLGAT — lower, 1.97
- FVKALSDLHKMNHVTPPNVSLGAT — lower, 1.46
- FVKALKDLHKMNHVTPPNVSLGAT — higher, 2.39
- FVKALGDLHKMNHVTPPNVSLGAT — lower, 2.07
- FVKALVDLHKMNHVTPPNVSLGAT — higher, 2.59
- FVKALIDLHKMNHVTPPNVSLGAT — higher, 2.58
- FVKALYDLHKMNHVTPPNVSLGAT — higher, 4.17
- FVKALTDLHKMNHVTPPNVSLGAT — lower, 1.88
- FVKALCDLHKMNHVTPPNVSLGAT — higher, 4.16
- FVKALHDLHKMNHVTPPNVSLGAT — lower, 1.57
- FVKALMDLHKMNHVTPPNVSLGAT — higher, 2.54
- FVKALNDLHKMNHVTPPNVSLGAT — higher, 2.83
- FVKALFDLHKMNHVTPPNVSLGAT — higher, 3.31
- FVKALWDLHKMNHVTPPNVSLGAT — higher, 3.45
- FVKALRDLHKMNHVTPPNVSLGAT — lower, 1.59
- FVKALQDLHKMNHVTPPNVSLGAT — lower, 1.34
- FVKAHDDLHKMNHVTPPNVSLGAT — lower, 1.9
- FVKAEDDLHKMNHVTPPNVSLGAT — higher, 3.33
- FVKAWDDLHKMNHVTPPNVSLGAT — higher, 3.57
- FVKANDDLHKMNHVTPPNVSLGAT — higher, 2.38
- FVKAADDLHKMNHVTPPNVSLGAT — lower, 2.23
- FVKASDDLHKMNHVTPPNVSLGAT — lower, 1.72
- FVKAPDDLHKMNHVTPPNVSLGAT — lower, 2.2
- FVKAQDDLHKMNHVTPPNVSLGAT — lower, 2.08
- FVKAFDDLHKMNHVTPPNVSLGAT — lower, 2.1
- FVKATDDLHKMNHVTPPNVSLGAT — lower, 2.22
- FVKACDDLHKMNHVTPPNVSLGAT — lower, 1.87
- FVKADDDLHKMNHVTPPNVSLGAT — higher, 2.72
- FVKARDDLHKMNHVTPPNVSLGAT — lower, 1.62
- FVKAIDDLHKMNHVTPPNVSLGAT — lower, 1.75
- FVKAVDDLHKMNHVTPPNVSLGAT — lower, 1.86
- FVKAMDDLHKMNHVTPPNVSLGAT — lower, 1.93
- FVKAKDDLHKMNHVTPPNVSLGAT — lower, 2.27
- FVKAYDDLHKMNHVTPPNVSLGAT — higher, 2.82
- FVKAGDDLHKMNHVTPPNVSLGAT — lower, 1.99
- FVKALDDLHKMNCVTPPNVSLGAT — lower, 1.67
- FVKALDDLHKMNSVTPPNVSLGAT — lower, 1.2
- FVKALDDLHKMNIVTPPNVSLGAT — lower, 2.22
- FVKALDDLHKMNWVTPPNVSLGAT — higher, 2.66
- FVKALDDLHKMNDVTPPNVSLGAT — lower, 1.92
- FVKALDDLHKMNFVTPPNVSLGAT — lower, 2.17
- FVKALDDLHKMNKVTPPNVSLGAT — lower, 1.74
- FVKALDDLHKMNQVTPPNVSLGAT — lower, 2.08
- FVKALDDLHKMNNVTPPNVSLGAT — lower, 1.54
- FVKALDDLHKMNYVTPPNVSLGAT — lower, 1.6
- FVKALDDLHKMNMVTPPNVSLGAT — lower, 2.06
- FVKALDDLHKMNGVTPPNVSLGAT — lower, 1.91
- FVKALDDLHKMNTVTPPNVSLGAT — higher, 2.75
- FVKALDDLHKMNEVTPPNVSLGAT — higher, 3.33
- FVKALDDLHKMNAVTPPNVSLGAT — lower, 1.92
- FVKALDDLHKMNRVTPPNVSLGAT — higher, 2.4
- FVKALDDLHKMNPVTPPNVSLGAT — lower, 1.75
- FVKALDDLHKMNVVTPPNVSLGAT — lower, 1.75
- FVKALDDLHKMNLVTPPNVSLGAT — higher, 2.56
- FVKALDDLHKMAHVTPPNVSLGAT — lower, 2.14
- FVKALDDLHKMEHVTPPNVSLGAT — lower, 2.01
- FVKALDDLHKMHHVTPPNVSLGAT — higher, 2.57
- FVKALDDLHKMYHVTPPNVSLGAT — higher, 3.14
- FVKALDDLHKMIHVTPPNVSLGAT — lower, 1.67
- FVKALDDLHKMMHVTPPNVSLGAT — lower, 1.65
- FVKALDDLHKMQHVTPPNVSLGAT — lower, 1.58
- FVKALDDLHKMRHVTPPNVSLGAT — lower, 1.56
- FVKALDDLHKMDHVTPPNVSLGAT — lower, 1.61
- FVKALDDLHKMPHVTPPNVSLGAT — lower, 2.08
- FVKALDDLHKMGHVTPPNVSLGAT — higher, 2.49
- FVKALDDLHKMKHVTPPNVSLGAT — lower, 1.55
- FVKALDDLHKMTHVTPPNVSLGAT — lower, 1.8
- FVKALDDLHKMFHVTPPNVSLGAT — lower, 1.74
- FVKALDDLHKMLHVTPPNVSLGAT — higher, 3.23
- FVKALDDLHKMSHVTPPNVSLGAT — lower, 2.12
- FVKALDDLHKMCHVTPPNVSLGAT — higher, 2.34
- FVKALDDLHKMVHVTPPNVSLGAT — lower, 1.67
- FVKALDDLHKMNHATPPNVSLGAT — lower, 2.24
- FVKALDDLHKMNHFTPPNVSLGAT — lower, 1.8
- FVKALDDLHKMNHCTPPNVSLGAT — higher, 2.3
- FVKALDDLHKMNHDTPPNVSLGAT — lower, 1.87
- FVKALDDLHKMNHETPPNVSLGAT — lower, 1.93
- FVKALDDLHSMNHVTPPNVSLGAT — lower, 2.11
- FVKALDDLHIMNHVTPPNVSLGAT — higher, 2.35
- FVKALDDLHLMNHVTPPNVSLGAT — lower, 1.72
- FVKALDDLHCMNHVTPPNVSLGAT — lower, 1.64
- FVKALDDLHHMNHVTPPNVSLGAT — lower, 2.13
- FVKALDDLHYMNHVTPPNVSLGAT — higher, 2.63
- FVKALDDLHFMNHVTPPNVSLGAT — lower, 1.6
- FVKALDDLHNMNHVTPPNVSLGAT — lower, 2.07
- FVKALDDLHPMNHVTPPNVSLGAT — higher, 2.61
- FVKALDDLHTMNHVTPPNVSLGAT — lower, 2.21
- FVKALDDLHMMNHVTPPNVSLGAT — lower, 1.72
- FVKALDDLHDMNHVTPPNVSLGAT — lower, 2.22
- FVKALDDLHWMNHVTPPNVSLGAT — higher, 4.58
- FVKALDDLHEMNHVTPPNVSLGAT — higher, 2.98
- FVKALDDLHGMNHVTPPNVSLGAT — lower, 1.5
- FVKALDDLHVMNHVTPPNVSLGAT — lower, 1.48
- FVKALDDLHQMNHVTPPNVSLGAT — lower, 1.95
- FVKALDDLHRMNHVTPPNVSLGAT — higher, 2.77
- FVKALDDLHAMNHVTPPNVSLGAT — higher, 2.79
- FVKALDFLHKMNHVTPPNVSLGAT — higher, 2.71
- FVKALDVLHKMNHVTPPNVSLGAT — lower, 2.27
- FVKALDALHKMNHVTPPNVSLGAT — lower, 1.69
- FVKALDILHKMNHVTPPNVSLGAT — higher, 2.48
- FVKALDMLHKMNHVTPPNVSLGAT — higher, 2.62
- FVKALDELHKMNHVTPPNVSLGAT — lower, 1.57
- FVKALDWLHKMNHVTPPNVSLGAT — lower, 2.24
- FVKALDYLHKMNHVTPPNVSLGAT — lower, 2.2
- FVKALDQLHKMNHVTPPNVSLGAT — lower, 1.7
- FVKALDSLHKMNHVTPPNVSLGAT — lower, 1.47
- FVKALDHLHKMNHVTPPNVSLGAT — higher, 3.12
- FVKALDPLHKMNHVTPPNVSLGAT — higher, 3.02
- FVKALDCLHKMNHVTPPNVSLGAT — lower, 2.15
- FVKALDKLHKMNHVTPPNVSLGAT — lower, 1.8
- FVKALDTLHKMNHVTPPNVSLGAT — lower, 2.16
- FVKALDNLHKMNHVTPPNVSLGAT — lower, 1.96
- FVKALDGLHKMNHVTPPNVSLGAT — lower, 1.98
- FVKALDRLHKMNHVTPPNVSLGAT — lower, 1.93
- FVKALDDLPKMNHVTPPNVSLGAT — lower, 1.69
- FVKALDDLWKMNHVTPPNVSLGAT — higher, 4.16
- FVKALDDLVKMNHVTPPNVSLGAT — lower, 1.79
- FVKALDDLGKMNHVTPPNVSLGAT — lower, 1.97
- FVKALDDLDKMNHVTPPNVSLGAT — lower, 2.05
- FVKALDDLYKMNHVTPPNVSLGAT — lower, 1.54
- FVKALDDLEKMNHVTPPNVSLGAT — lower, 2.08
- FVKALDDLCKMNHVTPPNVSLGAT — lower, 2.04
- FVKALDDLLKMNHVTPPNVSLGAT — lower, 1.44
- FVKALDDLTKMNHVTPPNVSLGAT — lower, 2.15
- FVKALDDLIKMNHVTPPNVSLGAT — lower, 1.29
- FVKALDDLSKMNHVTPPNVSLGAT — higher, 2.57
- FVKALDDLAKMNHVTPPNVSLGAT — lower, 1.86
- FVKALDDLKKMNHVTPPNVSLGAT — lower, 1.9
- FVKALDDLFKMNHVTPPNVSLGAT — higher, 3.03
- FVKALDDLQKMNHVTPPNVSLGAT — lower, 1.34
- FVKALDDLRKMNHVTPPNVSLGAT — lower, 1.66
- FVKALDDLMKMNHVTPPNVSLGAT — higher, 2.64
- FVKALDDLNKMNHVTPPNVSLGAT — lower, 1.72
- FVKFLDDLHKMNHVTPPNVSLGAT — lower, 1.15
- FVKMLDDLHKMNHVTPPNVSLGAT — lower, 1.58
- FVKHLDDLHKMNHVTPPNVSLGAT — lower, 2.03
- FVKPLDDLHKMNHVTPPNVSLGAT — higher, 2.6
- FVKQLDDLHKMNHVTPPNVSLGAT — lower, 1.94
- FVKYLDDLHKMNHVTPPNVSLGAT — higher, 2.85
- FVKGLDDLHKMNHVTPPNVSLGAT — higher, 2.68
- FVKKLDDLHKMNHVTPPNVSLGAT — lower, 1.58
- FVKNLDDLHKMNHVTPPNVSLGAT — lower, 1.66
- FVKSLDDLHKMNHVTPPNVSLGAT — lower, 2.03
- FVKLLDDLHKMNHVTPPNVSLGAT — higher, 2.69
- FVKTLDDLHKMNHVTPPNVSLGAT — higher, 2.34
- FVKRLDDLHKMNHVTPPNVSLGAT — lower, 1.61
- FVKILDDLHKMNHVTPPNVSLGAT — lower, 2.12
- FVKWLDDLHKMNHVTPPNVSLGAT — higher, 3.85
- FVKVLDDLHKMNHVTPPNVSLGAT — lower, 1.77
- FVKALDDKHKMNHVTPPNVSLGAT — higher, 2.3
- FVKALDDHHKMNHVTPPNVSLGAT — lower, 2.26
- FVKALDDQHKMNHVTPPNVSLGAT — lower, 1.68
- FVKALDDEHKMNHVTPPNVSLGAT — higher, 2.31
- FVKALDDRHKMNHVTPPNVSLGAT — lower, 1.89
- FVKALDDAHKMNHVTPPNVSLGAT — lower, 1.51
- FVKALDDCHKMNHVTPPNVSLGAT — lower, 1.77
- FVKALDDMHKMNHVTPPNVSLGAT — lower, 1.62
- FVKALDDFHKMNHVTPPNVSLGAT — higher, 2.59
- FVKALDDIHKMNHVTPPNVSLGAT — higher, 2.64
- FVKALDDVHKMNHVTPPNVSLGAT — lower, 1.74
- FVKALDDNHKMNHVTPPNVSLGAT — lower, 1.93
- FVKALDDPHKMNHVTPPNVSLGAT — higher, 2.31
- FVKALDDDHKMNHVTPPNVSLGAT — lower, 1.86
- FVKALDDTHKMNHVTPPNVSLGAT — higher, 2.46
- FVKALDDYHKMNHVTPPNVSLGAT — lower, 1.52
- FVKALDDSHKMNHVTPPNVSLGAT — higher, 2.39
- FVKALDDGHKMNHVTPPNVSLGAT — lower, 2.26

From the supplement of paper PMC10567573
